# Laboratory results: patent publication US20240336661A1, “PEPTIDES DERIVED FROM RUMINOCOCCUS TORQUES” (University of Copenhagen, priority 2021, published 2024)
# What was measured:
# HepG2 cell line = test: Gluconeogenesis gene expression in HepG2 cells; assay type: cell-based; details: HepG2, q-PCR
# Protocol: FIG. 13. […] The cells were treated with various doses of RUCILP2, and cells were collected for q-PCR quantification on indicated genes. For integrin inhibitor treatment, cells were treated with 10 uM of cRGDyK (Selleckchem, #S7844) for 10 minutes and washed with PBS before treated with RUCILP2. Data are presented as mean+/−SEM of one representative experiment done in technical triplicate. Statistical significance was determined by unpaired two-tailed Student's t-test. *, p<0.05 vs 0 nM RUCILP2.
# HepG2 cells were seeded on 12-well plates under DMEM/F-12 medium (Dulbecco's Modified Eagle Medium/Nutrient Mixture F-12, Fisher Scientific, #11524436), supplemented with 10% FBS (Fetal Bovine Serum, Fisher Scientific, #11550356) and 1% Penicillin-Streptomycin (Fisher Scientific, #11548876). Cell cultures were maintained in a humidified chamber with 5% C02 at 37° C., and culture media were changed every 2-3 days.
# At 70% confluence, to induce insulin resistance, HepG2 cells were incubated with 18 mM glucosamine (GlcN) for 18 h in serum-free medium, followed by treatment with recombinant RUCILP2 or commercial recombinant irisin (Sigma, #SRP8039-10UG and Phoenix pharmaceuticals, #067-29A), or saline for 24 h. […]
# adipocytes = test: Oil red O staining of lipids in adipocytes; assay type: cell-based, mouse
# Protocol: FIG. 10. […] Staining was performed on 10% formalin-fixed adipocytes according to the manufacturer's protocol.
# Oil red O staining of lipids in adipocytes was performed according to the protocol below: • (1) Fixation—Remove the medium and gently wash the cells twice with PBS. Add formalin (10%) to the cells and incubate for 30 minutes • (2) Discard the formalin and wash the cells twice using sterile water. Add 60% isopropanol to the cells and incubate for 5 minutes • (3) Discard 60% isopropanol and cover the cells evenly with Oil Red O Working Solution. Rotate the plate or dish, and incubate for 15 minutes • (4) Discard the Oil Red O solution and wash the cells four times with water until no excess stain is seen • (5) Add hematoxylin to the cells and incubate for 1 minute. Discard hematoxylin and wash the cells four times with water • (6) Cover the cells with sterile water and view under microscope. Lipid droplets appear red, and nuclei appear blue
molecule,measurement,setting,value
"RUCILP2: 87 amino acid irisin-like polypeptide cleaved from the Ruminococcus torques FNDC5-like protein RUMTOR_00181; recombinant, 6-His-tagged from E. coli (protein, 6-His tag; Ruminococcus torques, 87 amino acid irisin-like polypeptide cleaved from the Ruminococcus torques FNDC5-like protein RUMTOR_00181; recombinant, 6-His-tagged from E. coli) APVDVKVSEITETSAKASWKNAADGKEAAGYNVYVDGVKLNKELLTEASCGLTNLKAETTYFVEVTAVDAAGNESVKSEKVTFKTLK",expression of genes involved in gluconeogenesis,HepG2 cell line,reduces expression
same,lipid content in adipocytes (oil red O staining),adipocytes,reduces lipid content
